Assay results reported in the supplement of paper PMC10567573.

B1: MNAT1 (parent)
chain: LAPIHKLEEALYEYQPLQIETYGP

Variants of: B1
Assay: protein stability index of a GFP-peptide fusion (GPS, HEK-293T) (PSI 1-6); higher = more stable
Conditions: c terminus: a fixed tail appended
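Further: lentivirally expressed fusions sorted by FACS into six bins by GFP to DsRed ratio, PSI derived from sequencing read proportions per bin multiplied by bin number.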

Row | Variant | protein stability index
1 | LAPIHKLEEALYEYLPLQIETYGP [Q15L] | 1.73
2 | LAPIHKLEEALYEYYPLQIETYGP [Q15Y] | 1.44
3 | LAPIHKLEEALYEYSPLQIETYGP [Q15S] | 2.07
4 | LAPIHKLEEALYEYGPLQIETYGP [Q15G] | 1.52
5 | LAPIHKLEEALYEYDPLQIETYGP [Q15D] | 2.94
6 | LAPIHKLEEALYEYAPLQIETYGP [Q15A] | 2.17
7 | LAPIHKLEEALYEYRPLQIETYGP [Q15R] | 2.03
8 | LAPIHKLEEALYEYFPLQIETYGP [Q15F] | 1.17
9 | LAPIHKLEEALYEYHPLQIETYGP [Q15H] | 2.08
10 | LAPIHKLEEALYEYQPLQIEYYGP [T21Y] | 2.38
11 | LAPIHKLEEALYEYQPLQIEQYGP [T21Q] | 1.57
12 | LAPIHKLEEALYEYQPLQIEGYGP [T21G] | 1.98
13 | LAPIHKLEEALYEYQPLQIEFYGP [T21F] | 5.16
14 | LAPIHKLEEALYEYQPLQIEMYGP [T21M] | 3.53
15 | LAPIHKLEEALYEYQPLQIELYGP [T21L] | 3.23
16 | LAPIHKLEEALYEYQPLQIEEYGP [T21E] | 1.8
17 | LAPIHKLEEALYEYQPLQKETYGP [I19K] | 2.99
18 | LAPIHKLEEALYEYQPLQTETYGP [I19T] | 2.61
19 | LAPIHKLEEALYEYQPLQPETYGP [I19P] | 2.79
20 | LAPIHKLEEALYEYQPLQVETYGP [I19V] | 2.63
21 | LAPIHKLEEALYEYQPLQEETYGP [I19E] | 3.3
22 | LAPIHKLEEALYEYQPLEIETYGP [Q18E] | 2.08
23 | LAPIHKLEEALYEYQPLPIETYGP [Q18P] | 2.76
24 | LAPIHKLEEALYEYQPLDIETYGP [Q18D] | 3.99

Row | Variant | protein stability index
25 | LAPIHKLEEALYEYQPLMIETYGP [Q18M] | 1.85
26 | LAPIHKLEEALYEYQPLFIETYGP [Q18F] | 2.9
27 | LAPIHKLEEALYEYQPLAIETYGP [Q18A] | 1.84
28 | LAPIHKLEEALYEYQPLIIETYGP [Q18I] | 1.94
29 | LAPIHKLEEALYEYQPLNIETYGP [Q18N] | 1.92
30 | LAPIHKLEEALYEYQPLSIETYGP [Q18S] | 1.86
31 | LAPIHKLEEALYEYQPLGIETYGP [Q18G] | 1.51
32 | LAPIHKLEEALYEYQPLHIETYGP [Q18H] | 1.91
33 | LAPIHKLEEALYEYQPLWIETYGP [Q18W] | 1.96
34 | LAPIHKLEHALYEYQPLQIETYGP [E9H] | 2.15
35 | LAPIHKLESALYEYQPLQIETYGP [E9S] | 1.71
36 | LAPIHKLETALYEYQPLQIETYGP [E9T] | 2.16
37 | LAPIHKLENALYEYQPLQIETYGP [E9N] | 1.78
38 | LAPIHKLEGALYEYQPLQIETYGP [E9G] | 2.62
39 | LAPIHKLEQALYEYQPLQIETYGP [E9Q] | 1.91
40 | LAPIHKLEYALYEYQPLQIETYGP [E9Y] | 1.32
41 | LAPIHKLEEALYETQPLQIETYGP [Y14T] | 3.33
42 | LAPIHKLEEALYERQPLQIETYGP [Y14R] | 3.59
43 | LAPIHKLEEALYEDQPLQIETYGP [Y14D] | 4.2
44 | LAPIHKLEEALYEEQPLQIETYGP [Y14E] | 3.43
45 | LAPIHKLEEALYEKQPLQIETYGP [Y14K] | 3.53
46 | LAPIHKLEEALYELQPLQIETYGP [Y14L] | 2.1
47 | LAPIHKLEEALYEPQPLQIETYGP [Y14P] | 2.94
48 | LAPIHKLEEALYENQPLQIETYGP [Y14N] | 2.99

Row | Variant | protein stability index
49 | LAPFHKLEEALYEYQPLQIETYGP [I4F] | 1.88
50 | LAPPHKLEEALYEYQPLQIETYGP [I4P] | 2.55
51 | LAPVHKLEEALYEYQPLQIETYGP [I4V] | 2.13
52 | LAPEHKLEEALYEYQPLQIETYGP [I4E] | 2.78
53 | LAPNHKLEEALYEYQPLQIETYGP [I4N] | 2.35
54 | LAPCHKLEEALYEYQPLQIETYGP [I4C] | 2.49
55 | LAPMHKLEEALYEYQPLQIETYGP [I4M] | 1.92
56 | LAPKHKLEEALYEYQPLQIETYGP [I4K] | 2.17
57 | LAPHHKLEEALYEYQPLQIETYGP [I4H] | 2.63
58 | LAPIHKLEEALCEYQPLQIETYGP [Y12C] | 1.82
59 | LAPIHKLEEALPEYQPLQIETYGP [Y12P] | 2.23
60 | LAPIHKLEEALLEYQPLQIETYGP [Y12L] | 2.21
61 | LLPIHKLEEALYEYQPLQIETYGP [A2L] | 2.93
62 | LVPIHKLEEALYEYQPLQIETYGP [A2V] | 2.54
63 | LYPIHKLEEALYEYQPLQIETYGP [A2Y] | 1.9
64 | LIPIHKLEEALYEYQPLQIETYGP [A2I] | 1.91
65 | LNPIHKLEEALYEYQPLQIETYGP [A2N] | 2.23
66 | LDPIHKLEEALYEYQPLQIETYGP [A2D] | 1.77
67 | LCPIHKLEEALYEYQPLQIETYGP [A2C] | 1.68
68 | LPPIHKLEEALYEYQPLQIETYGP [A2P] | 2.3
69 | LAPIHKLEEALYEYQPYQIETYGP [L17Y] | 2.59
70 | LAPIHKLEEALYEYQPFQIETYGP [L17F] | 1.84
71 | LAPIHKLEEALYEYQPGQIETYGP [L17G] | 3.12
72 | LAPIHKLEEALYEYQPVQIETYGP [L17V] | 3.02

Row | Variant | protein stability index
73 | LAPIHKLEEALYEYQPCQIETYGP [L17C] | 2.51
74 | LAPIHKLEEALYEYQPHQIETYGP [L17H] | 3.03
75 | LAPIHKLEEALYEYQPMQIETYGP [L17M] | 2.33
76 | LAPIHKLEEALYEYQPKQIETYGP [L17K] | 3.19
77 | LAPIHKLEEALYEYQPEQIETYGP [L17E] | 3.63
78 | LAPIHKLEEALYEYQPQQIETYGP [L17Q] | 2.19
79 | LAPIHKLEEALYEYQPIQIETYGP [L17I] | 2.1
80 | LAPIHKLEEALYEYQPNQIETYGP [L17N] | 3.01
81 | LAPIHGLEEALYEYQPLQIETYGP [K6G] | 1.9
82 | LAPIHYLEEALYEYQPLQIETYGP [K6Y] | 2.1
83 | LAPIHNLEEALYEYQPLQIETYGP [K6N] | 2.27
84 | LAPIHALEEALYEYQPLQIETYGP [K6A] | 1.97
85 | LAPIHMLEEALYEYQPLQIETYGP [K6M] | 1.44
86 | LAPIHWLEEALYEYQPLQIETYGP [K6W] | 2.4
87 | LAPIHFLEEALYEYQPLQIETYGP [K6F] | 2.75
88 | LAPIHSLEEALYEYQPLQIETYGP [K6S] | 2.24
89 | LAPIHKLEEALYEYQPLQIGTYGP [E20G] | 1.98
90 | LAPIHKLEEALYEYQPLQIITYGP [E20I] | 2.71
91 | LAPIHKLEEALYEYQPLQIDTYGP [E20D] | 1.95
92 | LAPIHKLEEALYEYQPLQITTYGP [E20T] | 1.28
93 | LAPIHKLEEALYEYQPLQIYTYGP [E20Y] | 2.74
94 | LAPIHKLEEALYEYQPLQIMTYGP [E20M] | 1.47
